# Literature values as cited in paper PMC8257665.
# Key:
# Glu109 = Glu109 (UniProt position 109, PLLICEFYLIL); details: ground (dark) state GPR implied; not stated explicitly
# Glu143 = Glu143 (UniProt position 143, FGYMGEAGIMA); details: ground (dark) state GPR implied; not stated explicitly
substance,measurement,setting,value
Green-light absorbing proteorhodopsin (GPR) (uncultured marine gamma-proteobacterium (the article says only 'marine γ-proteobacteria')),pKa,Glu109,> 8.5
same,pKa,Glu143,> 9.0
